Series [1] concerns the target T1, Tgo-H4 (RT-H4) DNA polymerase V93Q;I114T;D141A;E143A;S383K;E429G;F445L;A485L;F493V;Y496H;Y497M;Y499F;A500E;K501N;I521L;E664K;K726R;N735K (UniProt P56689).
T1 sequence: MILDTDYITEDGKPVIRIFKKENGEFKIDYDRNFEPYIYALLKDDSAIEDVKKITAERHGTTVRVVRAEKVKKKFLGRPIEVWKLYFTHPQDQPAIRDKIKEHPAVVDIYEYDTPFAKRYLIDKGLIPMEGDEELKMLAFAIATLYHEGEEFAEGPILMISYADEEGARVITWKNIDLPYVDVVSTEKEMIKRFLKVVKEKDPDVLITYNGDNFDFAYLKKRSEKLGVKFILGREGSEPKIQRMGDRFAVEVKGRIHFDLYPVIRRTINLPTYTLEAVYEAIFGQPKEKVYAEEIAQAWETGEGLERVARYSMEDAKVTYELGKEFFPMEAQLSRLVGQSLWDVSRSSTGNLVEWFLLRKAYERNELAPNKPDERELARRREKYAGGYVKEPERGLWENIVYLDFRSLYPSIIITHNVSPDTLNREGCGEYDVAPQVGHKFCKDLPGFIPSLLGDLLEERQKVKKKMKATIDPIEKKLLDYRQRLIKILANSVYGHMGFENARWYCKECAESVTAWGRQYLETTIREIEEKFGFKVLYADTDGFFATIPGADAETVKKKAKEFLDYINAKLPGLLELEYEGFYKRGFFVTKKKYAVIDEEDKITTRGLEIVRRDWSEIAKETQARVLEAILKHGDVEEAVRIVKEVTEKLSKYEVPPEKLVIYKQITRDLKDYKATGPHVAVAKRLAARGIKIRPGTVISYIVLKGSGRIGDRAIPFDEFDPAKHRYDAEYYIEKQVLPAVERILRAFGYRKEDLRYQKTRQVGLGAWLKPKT
The series can be described thus: fluorescence polarization. The note with it: template fully HNA (1,5-anhydrohexitol nucleic acid); primer DNA; FP: 1x ThermoPol (20 mM Tris-HCl, 10 mM (NH4)2SO4, 10 mM KCl, 2 mM MgSO4, 0.1% Triton X-100, pH 8.8), 25 C, 20 min, 5 nM labeled primer. In general terms: Polarisation of emitted light reports the rotation of a fluorescent probe.

In series [2] the target is T2, KOD-H4 DNA polymerase V93Q;I114T;D141A;E143A;S383K;K429G;F445L;A485L;Y493V;Y496H;Y497M;Y499F;A500E;R501N;I521L;E664K;K726R;N735K (Thermococcus kodakarensis KOD?) (UniProt D0VWU9).
T2 sequence: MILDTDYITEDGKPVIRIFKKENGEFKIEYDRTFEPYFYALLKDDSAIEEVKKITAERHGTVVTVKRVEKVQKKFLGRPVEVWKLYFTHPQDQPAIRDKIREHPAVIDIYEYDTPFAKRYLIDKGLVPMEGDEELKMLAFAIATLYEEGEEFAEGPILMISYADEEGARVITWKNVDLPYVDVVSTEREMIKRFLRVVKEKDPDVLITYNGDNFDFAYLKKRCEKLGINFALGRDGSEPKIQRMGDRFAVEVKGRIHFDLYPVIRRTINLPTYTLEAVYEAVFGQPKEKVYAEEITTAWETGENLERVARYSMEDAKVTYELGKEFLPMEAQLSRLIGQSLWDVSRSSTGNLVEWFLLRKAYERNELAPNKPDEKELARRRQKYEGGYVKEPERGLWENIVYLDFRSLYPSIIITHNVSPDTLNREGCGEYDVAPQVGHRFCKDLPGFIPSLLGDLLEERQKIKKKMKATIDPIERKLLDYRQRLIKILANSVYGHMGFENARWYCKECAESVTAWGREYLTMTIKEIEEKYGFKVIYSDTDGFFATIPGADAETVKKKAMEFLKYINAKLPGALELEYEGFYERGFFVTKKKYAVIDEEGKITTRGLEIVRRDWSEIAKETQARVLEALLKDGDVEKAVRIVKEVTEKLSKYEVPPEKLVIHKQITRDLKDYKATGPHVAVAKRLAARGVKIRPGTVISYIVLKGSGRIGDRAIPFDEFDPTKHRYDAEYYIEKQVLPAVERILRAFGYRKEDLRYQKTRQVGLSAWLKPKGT
The series can be described thus: fluorescence polarization. The note with it: template fully HNA (1,5-anhydrohexitol nucleic acid); primer DNA; FP: 1x ThermoPol (20 mM Tris-HCl, 10 mM (NH4)2SO4, 10 mM KCl, 2 mM MgSO4, 0.1% Triton X-100, pH 8.8), 25 C, 20 min, 5 nM labeled primer.

For series [3], the target named is T3, KOD-H4 DNA polymerase (UniProt D0VWU9 1-774, V93Q;I114T;D141A;E143A;S383K;K429G;F445L;A485L;Y493V;Y496H;Y497M;Y499F;A500E;R50 …).
T3 sequence: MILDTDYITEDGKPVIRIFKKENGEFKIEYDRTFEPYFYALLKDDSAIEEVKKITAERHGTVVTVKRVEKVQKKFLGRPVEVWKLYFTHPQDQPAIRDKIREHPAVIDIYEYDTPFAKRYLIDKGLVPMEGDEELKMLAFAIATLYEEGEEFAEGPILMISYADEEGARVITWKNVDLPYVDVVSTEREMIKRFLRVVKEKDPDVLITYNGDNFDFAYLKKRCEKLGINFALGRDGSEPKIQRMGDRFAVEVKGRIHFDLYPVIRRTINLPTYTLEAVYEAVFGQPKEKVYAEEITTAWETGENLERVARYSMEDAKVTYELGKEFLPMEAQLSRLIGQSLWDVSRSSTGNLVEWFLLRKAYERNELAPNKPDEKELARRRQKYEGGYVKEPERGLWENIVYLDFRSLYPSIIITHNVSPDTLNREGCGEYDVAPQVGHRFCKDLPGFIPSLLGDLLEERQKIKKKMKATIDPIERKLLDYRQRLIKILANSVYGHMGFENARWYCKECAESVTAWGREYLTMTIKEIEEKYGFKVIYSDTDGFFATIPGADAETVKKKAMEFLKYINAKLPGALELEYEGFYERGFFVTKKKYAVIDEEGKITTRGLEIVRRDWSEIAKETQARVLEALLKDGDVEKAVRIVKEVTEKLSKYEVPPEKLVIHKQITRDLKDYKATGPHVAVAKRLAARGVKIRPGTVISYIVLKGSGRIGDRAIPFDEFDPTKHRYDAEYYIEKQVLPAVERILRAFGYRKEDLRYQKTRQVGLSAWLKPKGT
Kind of series: X-ray crystallography; dGTP analogue dGMPNPP-type (alpha,beta-imido, NHdGTP); Mg2+ or Mg2+/Mn2+; FP: 1x ThermoPol (20 mM Tris-HCl, 10 mM (NH4)2SO4, 10 mM KCl, 2 mM MgSO4, 0.1% Triton X-100, pH 8.8), 25 C, 20 min, 5 nM labeled primer. The settings on record: protein: recombinant; 5' overhang 3 nt on template; 13-nt duplex.

Series [4] addresses T4, Tgo-H4 (RT-H4) DNA polymerase (UniProt P56689 1-773, V93Q;I114T;D141A;E143A;S383K;E429G;F445L;A485L;F493V;Y496H;Y497M;Y499F;A500E;K50 …).
T4 sequence: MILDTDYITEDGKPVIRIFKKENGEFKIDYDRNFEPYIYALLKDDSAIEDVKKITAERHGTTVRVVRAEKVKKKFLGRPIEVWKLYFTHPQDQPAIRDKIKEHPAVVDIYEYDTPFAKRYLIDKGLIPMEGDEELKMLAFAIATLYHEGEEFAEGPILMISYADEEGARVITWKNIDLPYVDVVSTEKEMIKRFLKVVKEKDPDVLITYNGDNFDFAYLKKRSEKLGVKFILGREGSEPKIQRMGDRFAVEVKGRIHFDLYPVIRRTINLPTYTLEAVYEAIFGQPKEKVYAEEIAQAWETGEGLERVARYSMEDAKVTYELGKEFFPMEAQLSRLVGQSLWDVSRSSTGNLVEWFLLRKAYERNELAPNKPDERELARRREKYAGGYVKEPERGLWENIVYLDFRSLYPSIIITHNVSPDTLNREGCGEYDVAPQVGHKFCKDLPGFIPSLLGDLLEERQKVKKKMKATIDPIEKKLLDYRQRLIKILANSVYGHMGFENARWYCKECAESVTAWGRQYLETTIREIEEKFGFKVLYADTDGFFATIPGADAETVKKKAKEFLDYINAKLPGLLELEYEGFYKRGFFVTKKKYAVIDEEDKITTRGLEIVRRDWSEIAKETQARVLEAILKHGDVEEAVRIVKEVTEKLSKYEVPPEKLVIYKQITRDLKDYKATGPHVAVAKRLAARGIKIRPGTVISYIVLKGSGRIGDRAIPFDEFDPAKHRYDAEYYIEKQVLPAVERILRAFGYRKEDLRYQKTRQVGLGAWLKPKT
The series can be described thus: fluorescence polarization; 2 mM MgSO4; apparent KD, Hill slope 1.66; FP: 1x ThermoPol (20 mM Tris-HCl, 10 mM (NH4)2SO4, 10 mM KCl, 2 mM MgSO4, 0.1% Triton X-100, pH 8.8), 25 C, 20 min, 5 nM labeled primer. The note with it: protein: recombinant; label: 5'-6-FAM on primer; 5' overhang 6 nt on template; 10-nt duplex.

Series [5] has as its target T3, KOD-H4 DNA polymerase. The series can be described thus: fluorescence polarization; 2 mM MgSO4; apparent KD, Hill slope 1.67; FP: 1x ThermoPol (20 mM Tris-HCl, 10 mM (NH4)2SO4, 10 mM KCl, 2 mM MgSO4, 0.1% Triton X-100, pH 8.8), 25 C, 20 min, 5 nM labeled primer. The settings on record: protein: recombinant; label: 5'-6-FAM on primer; 5' overhang 6 nt on template; 10-nt duplex.

Consider “GACCACGGCC / AACTGTGGCCGTGGTC [DNA primer/HNA template (FP)]”, for which the figures for the Kd in series [1] and in series [2] were 61.5 nM and 80.2 nM, respectively.

B1: 13mer DNA primer/DNA template (crystal) (dsDNA)
DNA 1: GACCACGGCCACA
DNA 2: AACTGTGGCCGTGGTC
Regarding B1, in the series with KOD-H4 DNA polymerase [3], the binding result is reported as “binds”.

B2: DNA primer/DNA template (FP) (dsDNA)
DNA 1: GACCACGGCC
DNA 2: AACTGTGGCCGTGGTC
Regarding B2, the figures for the Kd (in series [4]; with KOD-H4 DNA polymerase [5]) were 10 nM and 12.5 nM, respectively.
